{"source": "patent US8633250B2", "about": "“Cell repair and regeneration by suramin and related polysulfonated napthylureas” (MUSC Foundation for Research Development, priority 2006, dated 2014)", "type_in_all_cases": "cell-based, rabbit", "key": {"[1]": {"system": "renal proximal tubule cells (RPTC)", "experiment": "Cell cycle analysis by flow cytometry: number of RPTC in S-phase", "conditions": "24 hr treatment, four days following plating; suramin 50 μM, EGF 10 ng/ml; untreated approximately 20%", "protocol": "(§1) Isolation and culture of renal proximal tubules: Isolation and culture of renal proximal tubules were performed as described previously (Rodeheaver et al., 1990; Nowak and Schnellmann, 1995; Nowak and Schnellmann, 1996). Female New Zealand White rabbits (1.5-2.5 kg) were purchased from Myrtle's Rabbitry (Thompson Station, Tenn.). RPTC were isolated using the iron oxide perfusion method and grown in 6-well tissue culture dishes under improved conditions. The culture medium was an 1:1 mixture of DMEM/Ham's F-12 (without glucose, phenol red, or sodium pyruvate) supplemented with 15 mM HEPES buffer, 2.5 mM L-glutamine, 1 μM pyridoxine HCl, 15 mM sodium bicarbonate, and 6 mM lactate. Hydrocortisone (50 μM), selenium (5 ng/ml), human transferrin (5 μg/ml) bovine insulin (10 nM) and L-ascorbic acid-2-phosphate (50 μM) were added daily to fresh culture medium.\nIsolated tubules were plated at 1 mg protein/well in a 6-well plate. On day 2, RPTC were incubated in the presence and absence of various pharmacological inhibitors for different time periods as indicated in the figure legends. […]\nCell cycle analysis: Cell cycle phase was determined using flow cytometry as previously described (Zhuang et al., 2004). Cells were harvested, stained with propidium iodide and the number of cells in S-phase of cell cycle determined."}, "EGF receptor": {"system": "EGF receptor", "experiment": "Immunoblot of EGF receptor phosphorylation (Tyr1068) in RPTC", "conditions": "50 μM suramin, 10 ng/ml EGF or both for 10 min", "protocol": "Preparation of cell lysates and immunoblot analysis: After different treatments, RPTC were washed twice with PBS and harvested in lysis buffer (0.25 M Tris-HCl, pH 6.8, 4% SDS, 10% glycerol, 1 mg/ml bromophenol blue, and 0.5% 2-mercaptoethanol). Cells were disrupted by sonication for 15 seconds and lysates stored at −20 °C. Equal amounts of cellular protein lysate were separated on 10% polyacrylamide gels and transferred to nitrocellulose membranes. After treatment with 5% skim milk at 4 °C overnight, membranes were incubated with various antibodies for 1 hr, and then incubated with an appropriate horseradish-peroxidase conjugated secondary antibody (Amersham, Piscataway, N.J.). Bound antibodies were visualized following chemiluminescence detection on autoradiographic film.\nTo determine whether suramin caused EGF receptor activation, we performed immunoblot analysis using an antibody against phosphorylated tyrosine 1068 of the EGF receptor. Total EGF receptor content was measured using immunoblot analysis and an antibody that recognizes the EGF receptor independent of its phosphorylation state to control for gel loading. […] Thus, suramin induced RPTC proliferation and scattering is not through the EGF receptor."}, "[2]": {"system": "renal proximal tubule cells (RPTC)", "experiment": "RPTC outgrowth from plated renal proximal tubules (photographs)", "conditions": "after 24 hr exposed for 24 hr, 50 μM suramin, 10 ng/ml EGF or suramin+EGF", "protocol": "as §1\n(§2) Isolated tubules were plated at 1 mg protein/well in a 6-well plate. On day 2, RPTC were incubated in the presence and absence of various pharmacological inhibitors for different time periods as indicated in the figure legends. For some experiments, suramin was added to RPTC on day 3 and then incubated for 24 hr in the presence or absence of various inhibitors before samples were taken."}, "[3]": {"system": "renal proximal tubule cells (RPTC)", "experiment": "RPTC scattering, fibroblast-like morphology and lamellipodia (bright field, phalloidin staining)", "conditions": "50 μM suramin or 10 ng/ml EGF, 24 hr, phalloidin staining", "protocol": "as §1, §2\nImmunocytochemistry: After various treatments, RPTC were fixed with 10% buffered formalin, washed, permeabilized, and blocked with BSA. […]"}}}
{"molecule": "EGF: Human recombinant EGF (epidermal growth factor) from R & D systems (protein, UniProt P01133 23-1207, looked up, Pro-epidermal growth factor, Human recombinant EGF (epidermal growth factor) from R & D systems) Pro-epidermal growth factor: PQHWSCPEGTLAGNGNSTCVGPAPFLIFSHGNSIFRIDTEGTNYEQLVVDAGVSVIMDFHYNEKRIYWVDLERQLLQRVFLNGSRQERVCNIEKNVSGMAINWINEEVIWSNQQEGIITVTDMKGNNSHILLSALKYPANVAVDPVERFIFWSSEVAGSLYRADLDGVGVKALLETSEKITAVSLDVLDKRLFWIQYNREGSNSLICSCDYDGGSVHISKHPTQHNLFAMSLFGDRIFYSTWKMKTIWIANKHTGKDMVRINLHSSFVPLGELKVVHPLAQPKAEDDTWEPEQKLCKLRKGNCSSTVCGQDLQSHLCMCAEGYALSRDRKYCEDVNECAFWNHGCTLGCKNTPGSYYCTCPVGFVLLPDGKRCHQLVSCPRNVSECSHDCVLTSEGPLCFCPEGSVLERDGKTCSGCSSPDNGGCSQLCVPLSPVSWECDCFPGYDLQLDEKSCAASGPQPFLLFANSQDIRHMHFDGTDYGTLLSQQMGMVYALDHDPVENKIYFAHTALKWIERANMDGSQRERLIEEGVDVPEGLAVDWIGRRFYWTDRGKSLIGRSDLNGKRSKIITKENISQPRGIAVHPMAKRLFWTDTGINPRIESSSLQGLGRLVIASSDLIWPSGITIDFLTDKLYWCDAKQSVIEMANLDGSKRRRLTQNDVGHPFAVAVFEDYVWFSDWAMPSVMRVNKRTGKDRVRLQGSMLKPSSLVVVHPLAKPGADPCLYQNGGCEHICKKRLGTAWCSCREGFMKASDGKTCLALDGHQLLAGGEVDLKNQVTPLDILSKTRVSEDNITESQHMLVAEIMVSDQDDCAPVGCSMYARCISEGEDATCQCLKGFAGDGKLCSDIDECEMGVPVCPPASSKCINTEGGYVCRCSEGYQGDGIHCLDIDECQLGEHSCGENASCTNTEGGYTCMCAGRLSEPGLICPDSTPPPHLREDDHHYSVRNSDSECPLSHDGYCLHDGVCMYIEALDKYACNCVVGYIGERCQYRDLKWWELRHAGHGQQQKVIVVAVCVVVLVMLLLLSLWGAHYYRTQKLLSKNPKNPYEESSRDVRSRRPADTEDGMSSCPQPWFVVIKEHQDLKNGGQPVAGEDGQAADGSMQPTSWRQEPQLCGMGTEQGCWIPVSSDKGSCPQVMERSFHMPSYGTQTLEGGVEKPHSLLSANPLWQQRALDPPHQMELTQ", "values": [{"measurement": "RPTC in S-phase", "setting": "[1]", "result": 32, "unit": "%"}, {"measurement": "EGF receptor phosphorylation (tyrosine 1068)", "setting": "EGF receptor", "result": "did observe phosphorylated EGF receptor"}, {"measurement": "RPTC outgrowth", "setting": "[2]", "result": "promoted RPTC outgrowth"}, {"measurement": "formation of lamellipodia and intercellular contacts", "setting": "[3]", "result": "increased the formation of lamellipodia and decreased intercellular contacts"}]}
